# PMC7188906
# B1: human ACKR4-EYFP [human] / fluorescently labeled human CCL19^Dy649P1 [modified: Dy649P1 (as CoA conjugate) attached site-specifically to the S6-tag by the phosphopantetheinyl transferase Sfp … (parent)
# chain 1: GTNDAEDCCLSVTQKPIPGYIVRNFHYLLIKDGCRVPAVVFTTLRGRQLCAPPDQPWVERIIQRLQRTSAKMKRRSS
# chain 2: MALEQNQSTDYYYEENEMNGTYDYSQYELICIKEDVREFAKVFLPVFLTIVFVIGLAGNSMVVAIYAYYKKQRTKTDVYILNLAVADLLLLFTLPFWAVNAVHGWVLGKIMCKITSALYTLNFVSGMQFLACISIDRYVAVTKVPSQSGVGKPCWIICFCVWMAAILLSIPQLVFYTVNDNARCIPIFPRYLGTSMKALIQMLEICIGFVVPFLIMGVCYFITARTLMKMPNIKISRPLKVLLTVVIVFIVTQLPYNIVKFCRAIDIIYSLITSCNMSKRMDIAIQVTESIALFHSCLNPILYVFMGASFKNYVMKVAKKYGSWRRQRQSVEEFPFDSEGPTEPTSTFSI
# Variants of: B1
# Assay: flow cytometry on cells
# Conditions: with fluorescently labeled human CCL19^Dy649P1 [modified: Dy649P1 (as CoA conjugate) attached site-specifically to the S6-tag by the phosphopantetheinyl transferase; 25 nM CCL19Dy649P1 at 8°C; HeLa cells; read off a plot
row,Variant,percent of parent
1,chain 2 T142A T226A S309A S323A S330A,110 % of wt
2,chain 2 T226A,83 % of wt
3,chain 2 Y68F,93 % of wt
4,chain 2 Y79F,110 % of wt
5,chain 2 Y138F,72 % of wt
